The record followed here is patent publication US20240262905A1 (PANDION OPERATIONS, published 2024).

Test [1] has as its target T1, human DSG-3 (human, UniProt P32926 50-615, limits assumed).
T1 construct: Soluble analyte (Octet) and plate coat (ELISA); also called hDSG-3
T1 sequence (looked up): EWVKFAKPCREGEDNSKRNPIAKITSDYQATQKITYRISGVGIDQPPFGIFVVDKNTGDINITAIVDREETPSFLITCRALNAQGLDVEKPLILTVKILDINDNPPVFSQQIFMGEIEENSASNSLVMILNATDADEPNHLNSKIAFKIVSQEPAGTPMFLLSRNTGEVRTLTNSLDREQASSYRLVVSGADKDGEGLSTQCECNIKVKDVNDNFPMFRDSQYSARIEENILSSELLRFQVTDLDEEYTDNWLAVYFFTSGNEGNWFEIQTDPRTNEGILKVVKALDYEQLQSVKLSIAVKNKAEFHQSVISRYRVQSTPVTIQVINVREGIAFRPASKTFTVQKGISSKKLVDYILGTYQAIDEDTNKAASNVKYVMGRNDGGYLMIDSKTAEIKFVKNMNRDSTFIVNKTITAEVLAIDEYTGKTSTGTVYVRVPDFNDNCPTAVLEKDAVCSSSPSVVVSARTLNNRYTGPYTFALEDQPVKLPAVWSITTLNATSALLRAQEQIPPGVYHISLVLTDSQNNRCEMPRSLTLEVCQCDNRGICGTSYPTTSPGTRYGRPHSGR
As to the kind of experiment: bridging ELISA, plate coated with hDSG-3, test article at 1 nM, then his-tagged hCD25 1 ug/mL, anti-His-HRP detection. On the technique in general: An ELISA detects its analyte on a solid surface through an enzyme-linked reagent.

Test [2] concerns the target T1, human DSG-3. Put plainly: bridging ELISA, plate coated with hDSG-3, test article at 10 nM, then his-tagged hCD25 1 ug/mL, anti-His-HRP detection.
The target of test [3] is T1, human DSG-3. As to the kind of experiment: bridging ELISA, plate coated with hDSG-3, test article at 100 nM, then his-tagged hCD25 1 ug/mL, anti-His-HRP detection.
A further test has as its target T2, human CD25 (human, UniProt P01589 22-213, limits assumed).
T2 construct: construct not described
T2 sequence (looked up): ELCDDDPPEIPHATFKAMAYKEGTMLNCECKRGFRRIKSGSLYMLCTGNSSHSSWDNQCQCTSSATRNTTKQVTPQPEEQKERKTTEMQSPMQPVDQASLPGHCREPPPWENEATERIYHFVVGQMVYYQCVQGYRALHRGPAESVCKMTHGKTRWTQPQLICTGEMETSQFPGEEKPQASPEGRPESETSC
As to the kind of experiment: BLI (Octet), test article captured on anti-human Fc biosensors, 1:1 global fit (method text names desmogleins as analyte; result told for human CD25). A general note: In BLI a coated tip is dipped into the sample, and binding shifts an interference pattern.

The target of a further test is T3, Insulin.
T3 construct: Plate coat in the polyreactivity ELISA
Put plainly: ELISA, plate coated with insulin 5 ug/mL, test article at 100 nM, anti-human Fc-HRP detection.

In another test the target is T4, human PD-1 (human, UniProt Q15116 25-167).
T4 construct: Soluble analyte in the Octet assay
Put plainly: BLI (Octet), test article captured on anti-human Fc biosensors, human PD-1 as analyte, 1:1 global fit.

Test [4] deals with PD-1 on PD-1 reporter Jurkat cells (human, UniProt Q15116 25-288). Put plainly: cell-based or functional assay.

Usually Kd stands for the constant that tells how readily two partners part at equilibrium. Low values mean a tighter complex, high ones a looser complex.

T4 sequence (Q15116 25-167 limits assumed): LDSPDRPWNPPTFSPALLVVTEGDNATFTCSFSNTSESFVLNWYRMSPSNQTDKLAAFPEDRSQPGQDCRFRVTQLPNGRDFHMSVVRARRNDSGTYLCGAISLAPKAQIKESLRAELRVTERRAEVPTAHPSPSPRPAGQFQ
PD-1 on PD-1 reporter Jurkat cells, sequence (Q15116 25-288): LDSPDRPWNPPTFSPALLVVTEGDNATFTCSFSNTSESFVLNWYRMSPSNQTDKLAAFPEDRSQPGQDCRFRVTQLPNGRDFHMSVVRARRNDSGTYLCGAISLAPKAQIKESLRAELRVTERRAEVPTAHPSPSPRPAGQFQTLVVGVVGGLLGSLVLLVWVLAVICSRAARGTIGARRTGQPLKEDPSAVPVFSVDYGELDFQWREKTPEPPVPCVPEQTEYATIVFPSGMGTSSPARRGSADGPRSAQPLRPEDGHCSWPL

B1: IL2DSGAB7 (other)
heavy: EVQLVESGGGLVQPGRSLRLSCAASGFTFDDYAMHWVRQAPGKGLEWVSGISWNSGSIDYADSVKGRFTISRDNAKNSLYLQMNSLRVEDTALYYCAKDGSRVFGVGGGFDFWGQGTMVTVSSASTKGPSVFPLAPSSKSTSGGTAALGCLVKDYFPEPVTVSWNSGALTSGVHTFPAVLQSSGLYSLSSVVTVPSSSLGTQTYICNVNHKPSNTKVDKKVEPKSCDKTHTCPPCPAPEAAGAPSVFLFPPKPKDTLMISRTPEVTCVVVDVSHEDPEVKFNWYVDGVEVHNAKTKPREEQYNSTYRVVSVLTVLHQDWLNGKEYKCKVSNKALPAPIEKTISKAKGQPREPQVYTLPPSREEMTKNQVSLTCLVKGFYPSDIAVEWESNGQPENNYKTTPPVLDSDGSFFLYSKLTVDKSRWQQGNVFSCSVMHEALHNHYTQKSLSLSPG
light: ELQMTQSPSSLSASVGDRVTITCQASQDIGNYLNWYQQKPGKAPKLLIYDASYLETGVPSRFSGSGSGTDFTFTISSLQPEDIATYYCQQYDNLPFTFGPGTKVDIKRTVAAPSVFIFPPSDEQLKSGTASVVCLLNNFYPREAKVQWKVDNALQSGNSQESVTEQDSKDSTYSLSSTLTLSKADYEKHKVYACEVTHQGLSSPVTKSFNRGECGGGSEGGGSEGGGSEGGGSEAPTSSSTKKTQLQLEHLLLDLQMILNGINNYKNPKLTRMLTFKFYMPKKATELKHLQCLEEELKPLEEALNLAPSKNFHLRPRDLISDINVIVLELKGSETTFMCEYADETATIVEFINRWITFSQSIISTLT
notes: also called TL2DSGAB7
On to B1, for which the “absorbance (OD450 nm)” value was determined as 0.36 with human DSG-3 [1], 0.55 in the test with human DSG-3 [2] and 1.2 in the test with human DSG-3 [3]. In the test with human CD25, this molecule gave a Kd of 3.5 nM.

B2: PD1DSGAB3 (bispecific antibody, human IgG1, kappa)
heavy: QVQLVQSGAEVKKPGASVKVSCKASGYSFTTYYMHWVRQAPGQGLEWMGIINPSGGSTSYAQKFQGRVTMTRDTSTSTVYMELSSLRSEDTAVYYCASGWVYWGQGTLVTVSSASTKGPSVFPLAPSSKSTSGGTAALGCLVKDYFPEPVTVSWNSGALTSGVHTFPAVLQSSGLYSLSSVVTVPSSSLGTQTYICNVNHKPSNTKVDKKVEPKSCDKTHTCPPCPAPEAAGAPSVFLFPPKPKDTLMISRTPEVTCVVVDVSHEDPEVKFNWYVDGVEVHNAKTKPREEQYNSTYRVVSVLTVLHQDWLNGKEYKCKVSNKALPAPIEKTISKAKGQPREPQVYTLPPSREEMTKNQVSLTCLVKGFYPSDIAVEWESNGQPENNYKTTPPVLDSDGSFFLYSKLTVDKSRWQQGNVFSCSVMHEALHNHYTQKSLSLSPGGGGGSGGGGSGGGGSELQMTQSPSSLSASVGDRVTITCQASQDIGNYLNWYQQKPGKAPKLLIYDASYLETGVPSRFSGSGSGTDFTFTISSLQPEDIATYYCQQYDNLPFTFGPGTKVDIKGGGGSGGGGSGGGGSGGGGSEVQLVESGGGLVQPGRSLRLSCAASGFTFDDYAMHWVRQAPGKGLEWVSGISWNSGSIDYADSVKGRFTISRDNAKNSLYLQMNSLRVEDTALYYCAKDGSRVFGVGGGFDFWGQGTMVTVSS
light: not shown
notes: Anti-PD-1 agonist human IgG1 with an SD3 anti-desmoglein scFv at the C-terminus of each heavy chain; copies: 2 + 2
As to B2, the Insulin polyreactivity score with Insulin was 1.7. Further, the dissociation constant Kd with human PD-1 was 328 nM.

B3: PD1DSGAB4 (bispecific antibody, human IgG1, kappa)
heavy: QVQLVQSGAEVKKPGASVKVSCKASGYSFTTYYMHWVRQAPGQGLEWMGIINPSGGSTSYAQKFQGRVTMTRDTSTSTVYMELSSLRSEDTAVYYCASGWVYWGQGTLVTVSSASTKGPSVFPLAPSSKSTSGGTAALGCLVKDYFPEPVTVSWNSGALTSGVHTFPAVLQSSGLYSLSSVVTVPSSSLGTQTYICNVNHKPSNTKVDKKVEPKSCDKTHTCPPCPAPEAAGAPSVFLFPPKPKDTLMISRTPEVTCVVVDVSHEDPEVKFNWYVDGVEVHNAKTKPREEQYNSTYRVVSVLTVLHQDWLNGKEYKCKVSNKALPAPIEKTISKAKGQPREPQVYTLPPSREEMTKNQVSLTCLVKGFYPSDIAVEWESNGQPENNYKTTPPVLDSDGSFFLYSKLTVDKSRWQQGNVFSCSVMHEALHNHYTQKSLSLSPGGGGGSGGGGSGGGGSELVLTQPPSVPVAPGQTANISCGGNNIGRQTVHWYQQKPGQAPVLVVFDDSDRPAGIPERFSGSNSGNTATLTISRVEAGDEADYYCQVWDSSSDHVVFGGGTQLTVLGGGGSGGGGSGGGGSGGGGSQVQLVQSGGGVVQSGRSLRLSCAASGFTFSDYAMHWVRQAPGKGLEWVAVISHGGTKKYTGDSVKGRFIISRDNSKNTVFLQMNSLRVEDTAVYYCARDRVEGYVWGGTFDHWGQGTPVTVSS
light: not shown
notes: Anti-PD-1 agonist human IgG1 with an SD4 anti-desmoglein scFv at the C-terminus of each heavy chain; copies: 2 + 2
For B3, the Kd in the test with human PD-1 amounted to 243 nM.

B4: IL2DSGAB3 (other)
heavy: EVQLVESGGGLVQPGRSLRLSCAASGFTFDDYAMHWVRQAPGKGLEWVSGISWNSGSIDYADSVKGRFTISRDNAKNSLYLQMNSLRVEDTALYYCAKDGSRVFGVGGGFDFWGQGTMVTVSSASTKGPSVFPLAPSSKSTSGGTAALGCLVKDYFPEPVTVSWNSGALTSGVHTFPAVLQSSGLYSLSSVVTVPSSSLGTQTYICNVNHKPSNTKVDKKVEPKSCDKTHTCPPCPAPEAAGAPSVFLFPPKPKDTLMISRTPEVTCVVVDVSHEDPEVKFNWYVDGVEVHNAKTKPREEQYNSTYRVVSVLTVLHQDWLNGKEYKCKVSNKALPAPIEKTISKAKGQPREPQVYTLPPSREEMTKNQVSLTCLVKGFYPSDIAVEWESNGQPENNYKTTPPVLDSDGSFFLYSKLTVDKSRWQQGNVFSCSVMHEALHNHYTQKSLSLSPGGGGGSAPTSSSTKKTQLQLEHLLLDLQMILNGINNYKNPKLTRMLTFKFYMPKKATELKHLQCLEEELKPLEEALNLAPSKNFHLRPRDLISDINVIVLELKGSETTFMCEYADETATIVEFINRWITFSQSIISTLT
light: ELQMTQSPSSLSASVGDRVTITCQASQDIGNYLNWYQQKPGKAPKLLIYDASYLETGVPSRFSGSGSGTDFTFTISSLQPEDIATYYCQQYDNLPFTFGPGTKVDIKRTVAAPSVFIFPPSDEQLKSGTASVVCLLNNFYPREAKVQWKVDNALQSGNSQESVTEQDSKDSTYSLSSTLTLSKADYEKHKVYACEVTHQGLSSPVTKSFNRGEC
notes: SD3 anti-desmoglein human IgG1 with the IL-2 mutein fused to the C-terminus of the heavy chain; copies: 2 + 2
In the test with Insulin, B4 had an Insulin polyreactivity score of 2.9. Also, the “absorbance (OD450 nm)” value with human DSG-3 [1] stood at 0.508; with human DSG-3 [2] it was 0.628; with human DSG-3 [3], 0.756.

B5: IL2DSGAB4 (other)
heavy: QVQLVQSGGGVVQSGRSLRLSCAASGFTFSDYAMHWVRQAPGKGLEWVAVISHGGTKKYTGDSVKGRFIISRDNSKNTVFLQMNSLRVEDTAVYYCARDRVEGYVWGGTFDHWGQGTPVTVSSASTKGPSVFPLAPSSKSTSGGTAALGCLVKDYFPEPVTVSWNSGALTSGVHTFPAVLQSSGLYSLSSVVTVPSSSLGTQTYICNVNHKPSNTKVDKKVEPKSCDKTHTCPPCPAPEAAGAPSVFLFPPKPKDTLMISRTPEVTCVVVDVSHEDPEVKFNWYVDGVEVHNAKTKPREEQYNSTYRVVSVLTVLHQDWLNGKEYKCKVSNKALPAPIEKTISKAKGQPREPQVYTLPPSREEMTKNQVSLTCLVKGFYPSDIAVEWESNGQPENNYKTTPPVLDSDGSFFLYSKLTVDKSRWQQGNVFSCSVMHEALHNHYTQKSLSLSPGGGGGSAPTSSSTKKTQLQLEHLLLDLQMILNGINNYKNPKLTRMLTFKFYMPKKATELKHLQCLEEELKPLEEALNLAPSKNFHLRPRDLISDINVIVLELKGSETTFMCEYADETATIVEFINRWITFSQSIISTLT
light: ELVLTQPPSVPVAPGQTANISCGGNNIGRQTVHWYQQKPGQAPVLVVFDDSDRPAGIPERFSGSNSGNTATLTISRVEAGDEADYYCQVWDSSSDHVVFGGGTQLTVLGQPKAAPSVTLFPPSSEELQANKATLVCLISDFYPGAVTVAWKADSSPVKAGVETTTPSKQSNNKYAASSYLSLTPEQWKSHRSYSCQVTHEGSTVEKTVAPTECS
notes: SD4 anti-desmoglein human IgG1 with the IL-2 mutein fused to the C-terminus of the heavy chain; copies: 2 + 2
The molecule B5 yielded an Insulin polyreactivity score with Insulin of 3.1. In addition, the “absorbance (OD450 nm)” value with human DSG-3 [1] turned out to be 0.194; in the test with human DSG-3 [2], 0.545; in the test with human DSG-3 [3], 1.16.

B6: PD1DSGAB1 (bispecific antibody)
heavy: QVQLVQSGAEVKKPGASVKVSCKASGYSFTTYYMHWVRQAPGQGLEWMGIINPSGGSTSYAQKFQGRVTMTRDTSTSTVYMELSSLRSEDTAVYYCASGWVYWGQGTLVTVSSASTKGPSVFPLAPSSKSTSGGTAALGCLVKDYFPEPVTVSWNSGALTSGVHTFPAVLQSSGLYSLSSVVTVPSSSLGTQTYICNVNHKPSNTKVDKKVEPKSCDKTHTCPPCPAPEAAGAPSVFLFPPKPKDTLMISRTPEVTCVVVDVSHEDPEVKFNWYVDGVEVHNAKTKPREEQYNSTYRVVSVLTVLHQDWLNGKEYKCKVSNKALPAPIEKTISKAKGQPREPQVYTLPPSREEMTKNQVSLTCLVKGFYPSDIAVEWESNGQPENNYKTTPPVLDSDGSFFLYSKLTVDKSRWQQGNVFSCSVMHEALHNHYTQKSLSLSPGGGGGSGGGGSGGGGSQSVLTQPPSVSGTPGQRVTISCSGSSSHIGSNYVYWYQQLPGTAPKILIYSNDQRPAGVPDRFSASKSGTSASLAISGLRSEDEADYYCAAWDDGQGGVFGGGTKLTVLGGGGSGGGGSGGGGSGGGGSQVQLQESGPGPVKPSGTLSLTCGVSGGSISSNHWWTWVRQPPGKGLEWIGEIYHNGSTFLNPSLKSRVTISVDKSNNQFSLKLTSVTAADTAVYYCARGWHRTGFRGYPSHWYFDLWGRGTLVSVSS
light: not shown
notes: Anti-PD-1 agonist human IgG1 with an SD1 anti-desmoglein scFv at the C-terminus of each heavy chain (PD-1 ML-N format)
Take B6: in test [4], the “SHP-2 recruitment in PD-1 reporter Jurkat cells (test article on anti-human IgG coated plate), EC50 at 2 hours” value turned out to be 107 nM and the “SHP-2 recruitment in PD-1 reporter Jurkat cells (test article on anti-human IgG coated plate), EC50 at 24 hours” value is 11.2 nM. This molecule also returned an Insulin polyreactivity score with Insulin of 1.3. In the test with human PD-1, this molecule registered a dissociation constant (Kd) of 123 nM.
